In publication PMC10104517 one finds binding result and Kd data, which are given here for five molecules.

The target in data set [1] is T1, pI73R (African swine fever virus (ASFV-GZ, …, UniProt A0A2X0RU36 1-72)). Briefly: EMSA. (In general: A gel shift assay detects complexes by their altered migration in electrophoresis.)
In data set [2] the target is T1, pI73R. As to the kind of experiment: BLI. (BLI is a label-free optical method that tracks binding on a fibre tip over time.)

B1: High-GC ssRNA (ssRNA)
RNA: GCUUUGCAGCCGCGGCUCGGUUUAG
With B1, the binding result in data set [1] was “binds”.

B2: ssDNA (ssDNA)
DNA: TTGACGAGGAAGTGTCTGTT
One may read the Kd as the constant that tells how readily two partners part at equilibrium. With B2, in data set [2], the affinity, expressed as Kd, was 113 nM.

B3: ssRNA (ssRNA)
RNA: GCUUUGAUUUCGUGCAUCUAUGGAG
For B3, the Kd in data set [2] was found to be 37.5 nM.

B4: dsRNA (dsRNA)
RNA 1: GCUUUGAUUUCGUGCAUCUAUGGAG
RNA 2: CUCCAUAGAUGCACGAAAUCAAAGC
As to B4, binding in data set [2] was put at a Kd of 70 nM.

B5: dsDNA (dsDNA)
DNA 1: TTGACGAGGAAGTGTCTGTT
DNA 2: AACAGACACTTCCTCGTCAA
B5: the Kd in data set [2] is 100 nM.
